Molecular target: HLA-Cw*0701 (human)
Experiment: cell-based or functional assay

percent lysis (51Cr release) of autologous EBV-B cells loaded with 1 nM peptide, effector/target ratio 5:1: ~34%
Binder: EGDCAPEEK [peptide (D), EGDCAPEEK (amino acids 2-10 of SEQ ID NO: 2)]
